Our source for the FITC-A signal value, 5 nM Ab + 15 nM pHrodo (pHrodo endocytosis assay, Nectin4-CHOK1 clone 3) and FITC-A signal value, 20 nM Ab + 60 nM pHrodo (pHrodo endocytosis assay, Nectin4-CHOK1 clone 3) values is patent US20260199504A1.

This assay concerns the target human Nectin-4 on Nectin4-CHOK1 cells (CHO-K1 cell strain highly expressing Nectin-4) (human) (UniProt Q96NY8). The assay is described as follows: cell-based or functional assay.

Sequence of human Nectin-4 on Nectin4-CHOK1 cells (CHO-K1 cell strain highly expressing Nectin-4) (human) (Q96NY8 32-510 limits assumed): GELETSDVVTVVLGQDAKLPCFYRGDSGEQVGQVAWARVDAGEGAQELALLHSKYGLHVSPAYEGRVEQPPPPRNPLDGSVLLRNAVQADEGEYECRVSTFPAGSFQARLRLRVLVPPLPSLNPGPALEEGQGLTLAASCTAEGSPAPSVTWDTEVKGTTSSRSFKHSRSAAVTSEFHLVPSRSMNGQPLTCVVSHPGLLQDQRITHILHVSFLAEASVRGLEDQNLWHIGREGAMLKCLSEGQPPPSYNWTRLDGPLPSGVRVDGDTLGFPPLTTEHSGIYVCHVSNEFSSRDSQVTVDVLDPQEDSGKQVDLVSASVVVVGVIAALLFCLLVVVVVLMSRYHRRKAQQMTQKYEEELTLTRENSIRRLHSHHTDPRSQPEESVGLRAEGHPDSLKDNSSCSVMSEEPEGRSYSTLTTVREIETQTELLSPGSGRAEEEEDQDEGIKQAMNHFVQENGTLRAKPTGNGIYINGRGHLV

On to “C25-IgG1 (IgG1 isotype negative control) (antibody)”, for which the FITC-A signal value, 5 nM Ab + 15 nM pHrodo (pHrodo endocytosis assay, Nectin4-CHOK1 clone 3) turned out to be 129 and the FITC-A signal value, 20 nM Ab + 60 nM pHrodo (pHrodo endocytosis assay, Nectin4-CHOK1 clone 3) came to 154.
